The text below walks through data of patent publication US20090012270A1 (MEDICAL RESEARCH COUNCIL, published 2009).

The assay deals with T1, mouse OX2 (mouse, UniProt O54901 31-278).
T1 construct: whole, on cells; also called ligand OX2 (mouse); normally expressed mouse OX2
T1 sequence (looked up): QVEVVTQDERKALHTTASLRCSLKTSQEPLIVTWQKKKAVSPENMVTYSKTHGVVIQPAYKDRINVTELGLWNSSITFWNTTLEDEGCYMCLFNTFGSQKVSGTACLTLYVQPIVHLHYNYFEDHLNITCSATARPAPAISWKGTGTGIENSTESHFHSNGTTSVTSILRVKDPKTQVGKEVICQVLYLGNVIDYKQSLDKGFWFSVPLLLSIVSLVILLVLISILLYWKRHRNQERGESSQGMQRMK
Nature of the assay: immunoperoxidase staining of mouse spleen sections, detected with anti-human Fc. On the procedure: To determine function of OX2-OX2R interaction in vitro and in vivo, an adenovirus construct was prepared that produced in soluble form, the extracellular region of OX2RH1 fused to human IgG. A control construct was prepared that produced in soluble form, only the human IgG backbone. In the first instance, supernatants containing these fusion proteins were produced by cellular infection in vitro to test whether the OX2R fusion protein had biological function on the basis of binding to normally expressed mouse OX2. In the first series of studies, tissue sections of mouse spleen from normal as well as OX2-gene knockout (KO) mice, were prepared and OX2R, or control fusion proteins were added, and these reagents detected by addition of an antibody binding to the human Fc portion of the fusion protein, and subsequent immunoperoxidase staining procedures to reveal binding. Weak binding only of the OX2R fusion protein, and only in normal but not OX2 KO mice, was detected on follicular dendritic cells and endothelial cells. Both cell types are know to express very high levels of the ligand OX2.

B1: human IgG-mouse OX2RH1 fusion protein (extracellular region of OX2RH1 fused to human IgG) (Fc fusion)
chain: TDKNQTTQNNSSSPLTQVNTTVSVQIGTKALLCCFSIPLTKAVLITWIIKLRGLPSCTIAYKVDTKTNETSCLGRNITWASTPDHSPELQISAVTLQHEGTYTCETVTPEGNFEKNYDLQVLVPPEVTYFPEKNRSAVCEAMAGKPAAQISWSPDGDCVTTSESHSNGTVTVRSTCHWEQNNVSDVSCIVSHLTGNQSLSIELSRGGNQSLRP
notes: Soluble protein from cells infected with an adenovirus construct; also called OX2R fusion protein; Ig-OX2R fusion protein; not shown: human IgG backbone with the human Fc portion
Take B1: the binding result is on record as “binds”.
